Data: the nanobody polyreactivity screen of Harvey et al. (2022)

assay: yeast display, Sf9 membrane polyspecificity reagent, FACS + sequencing; frameworks hold sequencing errors
In short: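 Genes from sorted yeast were amplified by colony PCR, read by MiSeq 2 × 250 sequencing and filtered on CDR length. These cells carried a synthetic nanobody library in Saccharomyces cerevisiae BJ5465 and were sorted by FACS into low and high (top ~1%) gates on anti-HA and streptavidin fluorescence. Polyreactivity is labelled according to the gate of origin.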

Sequence	polyreactivity (PSR sort gate)
QVQLVESGGGLVQAGGSLRLSCAASGNIFDHYAMGWYRQAPGKEREMVAAISSGGSTSYADSVKGRFTITRDNAKTTVYVQMNCLKPEDTAVYYCAAESFVQYKSPKWVHRYDSWGQGTQVTVSS	low polyreactivity
QVQLVESVGGLVHAGGSLRLSCAASGRTFGYNAMGWYRQATGKERELVAAISFRGGTTYYADSVKGRFTISRDNAKITVYLQMNCLIPEDPSVYYCAARYYYRYTGGRLDYWGQGTQVTVSS	high polyreactivity
QGQLVESGGGLVQAGGSLRLSCAASGRIFQMYTMGWYRQAPGKERELDAAITSGTSTSYADSVKGRFTISRDNAKNPFYLQMNSLKPEDTAVYYCNKGSVCYSSVFVPYESDYWGQGTQVTVSS	low polyreactivity
QVQLVESGGGLVQAGCSLRLSCAASGLIFLPYAMGWYIQAPGKERELVAAINFSTGSTHYADSVKGRFTISRDNAKNTVFLQMNSLKPEDTAVYYCAVYTSQIYGYWGQGTQVNVSS	high polyreactivity
QVQLVESGGGLVQAGGSLRLSCAASGRTALRNAMGWYRQAPGKEREFVADIRWSGGSTYYADSVKGRFTISRDKAKNTVYLQMNSQKPEDTAVYYCAAGYVRYPYWYYYWGQGTQVTVSS	high polyreactivity
QVQLVESGGGLVQAGGSLRLSCAASGLTFDYYVMGWYRQAPGKERELVATISWSGDITYYADSVKGRFTISRDNAKNTVYLQMNSLKPEDTAVYYSATDKSYSSWSAQYDYWGQGTQVTVSS	low polyreactivity
QVQHVESGGGLVQAGGSLRLSCAASGSTFKFYTMGWYRQAPGKERELVAGSTRAGSTNYADSVKGRFTISRDNAKNTVYLQMNSLKPEDTAVYYCNAYIWIYGCDYWGQGTQVTVSS	high polyreactivity
QVQLVESGGGLVQAGGSLRLSCAASGRTFVPYAMGWYRQAPGKERELVAAINSGTRTYADSVKGRFTISRDNAKNTVYLQMNSLKPEDTAVYYCARRGYYYDYWGQGTQVTVSS	high polyreactivity
QDQLVESGGGLVQAGGSLRLSCAASGSTFGYYAMGWYRQAPGKERELVAAITWNGGSTYADSVKGRFTISRDNAKNTVYLQMNSLKPEDTAVYYCAALVHRRVQYDYWGQGTQVTVSS	high polyreactivity
QVHLVESGGGLVQAGGSLRLSCAASGSISTNYPMGWYRPAPGKERQLVAAISSSGGSTYYADSVKGRFTISRDNAKYTVYLQMNSLKPEDTAVYYCAATYWGRAYQGYRNLRYGYWGQGTQVTVSS	high polyreactivity
QVQLVESGGGLVPAGGSLRLSCAASGSIFKINAMGWYRQAPGKERELVATITWSTGTTYYADSVKGRFTISRDNAKNTVYLQMNSLKPEDTAVYYCATDGDSTKLDYWGQGTQVTVSS	low polyreactivity
QVQLVESGRGLVQAGGSLRLSCAASGFTLWIYAKGWYRQAPGKESELVAAITWSTGSTYYADSVKGRFTISRDNAKNTVYLLMNSLKPEDTAVYYCPAEFHWWYAGYDYGYWGQGTQVTVSS	low polyreactivity
QVQLVESGGGLVQAGGSLRLSCAASGIFLKYAKGWYRPAPGKERELVPAIRKRGGSTYYADSVKGRFTISRDNAKNTVYLQMNSLKPEDTAVYYCATRYTYHPGSAGFDYWGQGTQVTVSS	high polyreactivity
QVQLLESGGGLVQAGGSLRISCAASGSTLRTNAMGWYRQAPGKERELVAAISTRGSSTYYADSVKGRFTISRDNSKNTVYLQMNSLKPEDTAVYYCAKDGVWYYSGTGMDYWGQGTQVTVSS	low polyreactivity
QVQLVQSGGGLVQAGGSLRLSSAASRSPLGYYALGWYRQAPGKERELVAAISGRGTSPYYADSVKGRFTISRDNAKNTVYVQMNSLKPEDTAVSYCAAQLFRELYWGQGTQVTVSS	high polyreactivity
QVQLVESGGGLVQAGGRHRLSCAASGSIFTVYTIGWYRQAPGKEREFVAAINSRGGTTYYADSVKGRFTISRDNAKNTVYLQMNSLKPEDTAVYYCAAKQRPKSYGPGHYYWGQGTQVTVSS	high polyreactivity

Sequence	polyreactivity (PSR sort gate)
QVQLVESGGGLVQAGGSLRLSCAASGSTFVTNAMGWYRQAPGKEREFVAAISNSSGSTYYADSVKGRFTISRDNAKNTVYLQMNSLKPEDTAVYYCIATPDDWLQEDYWGQGTQVTVSS	low polyreactivity
QEQLQERGGGLVQAGGSLRLSCAASGSIFKVVDMGLYRQAPAKEREFVATIGEGGNTYYADSVKGRFTISRDNAKNTVYLQMNSLKPEDTAVYFYAVVLGTYYRYTYWGQGTQVTVSS	low polyreactivity
QVQLEESGGGLVQAGGSLRLSCAASGSTIHDNDMGWYRQAPGKERELVAAISWSGGSTTYADSVKGRFTISRDNAKNTVYLQMNSLKPEDTAVYYCAADWYYWGFIFDYWGQGTQVTVSS	high polyreactivity
QVQLVESGGGLVQAGGSLRLSCAASGLTFYVNAMGWYRQAPGKEMELVAAITRGGSTNYADSVKGRFTISRDNAKNTVYLQMNSLKPVDTAVYYCNARKRYHSRYSGGYREGYWGQGTQVTVSS	low polyreactivity
QVQLEESGGGLVQAGGSLRLSFAASISSINAMGWYRQAPGKESELVAAIRCSGSSTYYADSVKGRFTISRDNAMITFYLQMNSVKPEDTAVYYCAADTSTGDRGFDYWGHGTQVTVSS	high polyreactivity
QVQLVESGGGLVQAGGSLRLSCAASGSTLVGNAMGWYRQAPGKERELVATIDLSDDITYYADSVKGRFTISRDKAKNTVYLQMNSLKPEDTAVYYCAAEYYLYSTYTVSYWKYDYWGQGTQVTVSS	high polyreactivity
QVQLVESGGGLVQAGGSLRLSCAASGFIFRYYAKGWYREAPGKERELVAAITSGGASTYYADSVKGRFRISRDNAKNTVYLQMNSLKPEDTPVYYCAADTSSYSEYDYWGQGTQVTVSS	low polyreactivity
QVQLVESGGGLVQAGGSLRLSCAASGRIFTYYAMGWYRQAPGKERELVAAITWSGTGTYYADSVKGRFTISRDNAKNTVYLQMNSLKPEDTAVYYCNRRHALASSYYYWGQGTQVTVSS	low polyreactivity
QVQLVESGGGLVQAGGSLRLSCAASGLTFRVYAMGWYRQEPGKERELVASISRTGSTTYADSVKGRFTISRDNAKNTVYLQMNSLKPEDTAVYYCNARYYVLLWDSLAREYWGQGTQVTVSS	high polyreactivity
QVQLVESGGGLVQAGGSLRLSCAASGLTITSNAMGWYRQAPGKERELVASITWSGGSTSYADSVKGRFTISRDNAKNTVYLQMNSLKPEDTAVYDCAADRQRSHRVGTKGHRVGYWGQGTQVTVSS	high polyreactivity
QVQLVESGGGLVQAGGSLRLSCAASGRTLFPNVMGWYRQAPGKERELVAAITTIGGSTYYADSVKGRFTISRDNGKNTVFLQMNSLKPEDTEVYYCNARYRGRGLKFAYWGQGTQVTVSS	high polyreactivity
QVQLVESGGGLVQAGGSLRLSCAASGSTFVGYAMGWYRQAPGKERELVAGITASGTNTYYADSVKGRFTISRDNAKNTVYLQMNSLKPEDTAVYYCAAESNRRFEGEYWGQGTQVTVSS	high polyreactivity
QVQLVESGGGLVQAGGSLRLSCAASGFTFGTYAMGWYRQAPGKERELVAAITDGGGSTYYADSVKGRFSISRDNAKNTVYLQMNSLKPEDTAVYYCAAEFGYGWYTWLTGNDYWGQGTQVTVSS	low polyreactivity
QVQLVESGGGLVQAGGSLRLSCAASGIIFNVNAMGWYRQAPGKERELVASINSGSTYYADSVKGRFTISRDNAKNTVYLQMNSLKPEDTAVYYCATGARSPPWGRSKKRTYYYWGQGTQVTVSS	high polyreactivity
QVQLVESGGGLVQAGGSLRLSCAASGSTFFYNAMGWSRQAPGKERELVAAIRFSGGSTRYADSVKGRFTISRDNAKNTVYLQMNSLKPEDTAVYYCNARGFRESIWYQYDYWGQGTQVTVSS	high polyreactivity
